To fix the notation:
T1: FcγRIIb extracellular domain with C-terminal His tag (human, UniProt P31994 43-217)
T1 construct: extracellular domain; Soluble receptor expressed in FreeStyle293 cells, used as analyte in Biacore; also called FcgRIIb; 2b; not shown: His tag at the C terminus
T1 sequence (looked up): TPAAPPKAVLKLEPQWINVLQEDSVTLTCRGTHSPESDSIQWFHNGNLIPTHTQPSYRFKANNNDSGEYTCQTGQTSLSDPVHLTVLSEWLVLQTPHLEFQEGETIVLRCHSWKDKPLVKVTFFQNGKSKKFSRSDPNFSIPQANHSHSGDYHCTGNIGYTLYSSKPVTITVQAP

T2: FcγRIIb (human, UniProt P31994 43-217)
T2 construct: extracellular domain; also called FcgRIIb; 2b; not shown: His tag at the C terminus
T2 sequence (looked up): T1 sequence (looked up)

B1: GpH7-A5/GpH7-B3 variant L328_06M/GpL16-k0 (antibody, human IgG1, kappa)
heavy 1: not shown
heavy 2: not shown
light: DIVMTQSPLSLPVTPGEPASISCQASESLVHSNRNTYLHWYLQKPGQSPQLLIYKVSNRFSGVPDRFSGSGSGTDFTLKISRVEAEDVGVYYCSQNTHVPPTFGQGTKVEIERTVAAPSVFIFPPSDEQLKSGTASVVCLLNNFYPREAKVQWKVDNALQSGNSQESVTEQDSKDSTYSLSSTLTLSKADYEKHKVYACEVTHQGLSSPVTKSFNRGEC
notes: Heterodimerized anti-glypican-3 IgG1; L328M (EU) only in the GpH7-B3 chain; also called He Ab
B2: GpH7-A5/GpH7-B3 variant L328_16H/GpL16-k0 (antibody, human IgG1, kappa)
heavy 1: not shown
heavy 2: not shown
light: B1 light
notes: Heterodimerized anti-glypican-3 IgG1; L328H (EU) only in the GpH7-B3 chain; also called He Ab
B3: GpH7-A5/GpH7-B3 variant P331_08L/GpL16-k0 (antibody, human IgG1, kappa)
heavy 1: not shown
heavy 2: not shown
light: B1 light
notes: Heterodimerized anti-glypican-3 IgG1; P331L (EU) only in the GpH7-B3 chain; also called He Ab
B4: GpH7-A5/GpH7-B3 variant P331_11K/GpL16-k0 (antibody, human IgG1, kappa)
heavy 1: not shown
heavy 2: not shown
light: B1 light
notes: Heterodimerized anti-glypican-3 IgG1; P331K (EU) only in the GpH7-B3 chain; also called He Ab
B5: GpH7-A5/GpH7-B3 variant L328_10E/GpL16-k0 (antibody, human IgG1, kappa)
heavy 1: not shown
heavy 2: not shown
light: B1 light
notes: Heterodimerized anti-glypican-3 IgG1; L328E (EU) only in the GpH7-B3 chain; also called He Ab
B6: GpH7-A5/GpH7-B3 variant L328_09D/GpL16-k0 (antibody, human IgG1, kappa)
heavy 1: not shown
heavy 2: not shown
light: B1 light
notes: Heterodimerized anti-glypican-3 IgG1; L328D (EU) only in the GpH7-B3 chain; also called He Ab
B7: GpH7-A5/GpH7-B3 variant L328_18N/GpL16-k0 (antibody, human IgG1, kappa)
heavy 1: not shown
heavy 2: not shown
light: B1 light
notes: Heterodimerized anti-glypican-3 IgG1; L328N (EU) only in the GpH7-B3 chain; also called He Ab
B8: GpH7-A5/GpH7-B3 variant L328_07I/GpL16-k0 (antibody, human IgG1, kappa)
heavy 1: not shown
heavy 2: not shown
light: B1 light
notes: Heterodimerized anti-glypican-3 IgG1; L328I (EU) only in the GpH7-B3 chain; also called He Ab
B9: GpH7-A5/GpH7-B3 variant L328_13S/GpL16-k0 (antibody, human IgG1, kappa)
heavy 1: not shown
heavy 2: not shown
light: B1 light
notes: Heterodimerized anti-glypican-3 IgG1; L328S (EU) only in the GpH7-B3 chain; also called He Ab
B10: GpH7-A5/GpH7-B3 variant P331_15Y/GpL16-k0 (antibody, human IgG1, kappa)
heavy 1: not shown
heavy 2: not shown
light: B1 light
notes: Heterodimerized anti-glypican-3 IgG1; P331Y (EU) only in the GpH7-B3 chain; also called He Ab
B11: GpH7-A5/GpH7-B3 variant A327_09D/GpL16-k0 (antibody, human IgG1, kappa)
heavy 1: not shown
heavy 2: not shown
light: B1 light
notes: heterodimerized IgG1; alteration in the GpH7-B3 H chain only; also called He Ab
B12: GpH7-A5/GpH7-B3 variant A327_10E/GpL16-k0 (antibody, human IgG1, kappa)
heavy 1: not shown
heavy 2: not shown
light: B1 light
notes: as for B11
B13: GpH7-A5/GpH7-B3 variant A330_05P/GpL16-k0 (antibody, human IgG1, kappa)
heavy 1: not shown
heavy 2: not shown
light: B1 light
notes: as for B11
B14: GpH7-A5/GpH7-B3 variant I332_10E/GpL16-k0 (antibody, human IgG1, kappa)
heavy 1: not shown
heavy 2: not shown
light: B1 light
notes: as for B11
B15: GpH7-A5/GpH7-B3 variant I332_09D/GpL16-k0 (antibody, human IgG1, kappa)
heavy 1: not shown
heavy 2: not shown
light: B1 light
notes: as for B11
B16: GpH7-A5/GpH7-B3 variant P331_20W/GpL16-k0 (antibody, human IgG1, kappa)
heavy 1: not shown
heavy 2: not shown
light: B1 light
notes: as for B11

One experiment deals with T3, FcγRIIIa extracellular domain with C-terminal His tag (human, UniProt P08637 17-208).
T3 construct: extracellular domain; also called FcgRIIIa; 3a; not shown: His tag at the C terminus
T3 sequence (P08637 17-208): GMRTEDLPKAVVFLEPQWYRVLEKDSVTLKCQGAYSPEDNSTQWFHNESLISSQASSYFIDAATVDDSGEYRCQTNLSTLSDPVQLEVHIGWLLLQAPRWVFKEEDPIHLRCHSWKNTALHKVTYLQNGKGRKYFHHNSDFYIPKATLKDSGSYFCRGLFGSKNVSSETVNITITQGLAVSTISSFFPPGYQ
The experiment is described as follows: SPR; He/Con_3a divided by He/Con_2b (FcγRIIIa over FcγRIIb). On the procedure:
(§1) Analysis of interaction between objective antibody and the FcγR was carried out using Biacore T100 (GE Healthcare). HBS-EP+ (GE Healthcare) was used as the running buffer, and the measurement temperature was set to 25° C. Chips produced by immobilizing the antigen peptide by the amine coupling method to a Series S Sencor Chip CM5 (GE Healthcare), or alternatively, chips produced by allowing preliminarily biotinylated antigen peptides to interact with and immobilize onto a Series S Sensor Chip SA (certified) (GE Healthcare) were used. Antibodies of interest were captured onto an antigen peptide-immobilized chip, and allowed to interact to each FcγR diluted with running buffer. To regenerate and repeatedly use the chip, the antibodies captured on the chip were washed off by reacting 10 mM glycine-HCl, pH 1.5.
(§2) The FcγR-binding activity of each antibody was assessed primarily using as an indicator the FcγR-binding activity and dissociation constant for FcγR.
Consider B1, for which the “He_3a/2b (IIIa/IIb)” value stood at 0.56 ratio.
B2: the “He_3a/2b (IIIa/IIb)” value came to 0.67 ratio.
As for B3, the “He_3a/2b (IIIa/IIb)” value was found to be 0.75 ratio.
Same read-out and setting: under B4 stands 0.8 ratio; under B5, 0.31 ratio; under B6, 0.24 ratio.
As to B7, the “He_3a/2b (IIIa/IIb)” value amounted to 0.61 ratio.
For B8, the “He_3a/2b (IIIa/IIb)” value worked out at 0.52 ratio.
On to B9, for which the “He_3a/2b (IIIa/IIb)” value was found to be 0.48 ratio.
On the same count and under the same terms, under B10 stands 0.72 ratio.

The target in a further experiment is T4, FcγRIa (human, UniProt P12314 16-292).
T4 construct: extracellular domain; also called FcgRI; 1a; not shown: His tag at the C terminus
T4 sequence (P12314 16-292): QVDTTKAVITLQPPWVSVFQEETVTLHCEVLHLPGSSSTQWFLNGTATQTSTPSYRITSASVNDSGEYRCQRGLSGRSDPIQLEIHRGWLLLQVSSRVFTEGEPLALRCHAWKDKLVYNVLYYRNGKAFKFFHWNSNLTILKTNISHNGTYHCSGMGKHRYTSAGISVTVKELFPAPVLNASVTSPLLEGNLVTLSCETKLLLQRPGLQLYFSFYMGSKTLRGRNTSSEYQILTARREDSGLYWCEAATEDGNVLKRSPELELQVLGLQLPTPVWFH
Briefly: SPR (Biacore); He/Con_1a (FcγRIa) divided by He/Con_2b (FcγRIIb).
Consider B11, for which the “Ia/IIb He_1a/2b” value amounted to 0.6 ratio.
Consider B12, for which the “Ia/IIb He_1a/2b” value is 0.74 ratio.
On the same count and under the same terms, the same measure for B13: 0.74 ratio; for B14: 0.68 ratio; for B15: 0.64 ratio.

The target in another experiment is T1, FcγRIIb extracellular domain with …. Briefly: SPR (Biacore), antibody captured on antigen peptide chip, FcγR as analyte. As to the method:
as §1, §2
As to B1, the He/Con_2b is 142 relative binding (GpH7-A5/GpH7-B3/GpL16-k0 = 100).
For B2, the He/Con_2b is 80.6 relative binding (GpH7-A5/GpH7-B3/GpL16-k0 = 100).
On the same count and under the same terms, the same measure for B3: 95.7 relative binding (GpH7-A5/GpH7-B3/GpL16-k0 = 100); for B4: 84.7 relative binding (GpH7-A5/GpH7-B3/GpL16-k0 = 100); for B5: 172 relative binding (GpH7-A5/GpH7-B3/GpL16-k0 = 100).
Regarding B6, the He/Con_2b is 199 relative binding (GpH7-A5/GpH7-B3/GpL16-k0 = 100).
With B7, the He/Con_2b was 80.8 relative binding (GpH7-A5/GpH7-B3/GpL16-k0 = 100).
For B8, the He/Con_2b is 160 relative binding (GpH7-A5/GpH7-B3/GpL16-k0 = 100).
As for B9, the He/Con_2b was 149 relative binding (GpH7-A5/GpH7-B3/GpL16-k0 = 100).
In the case of B10, the He/Con_2b was 114 relative binding (GpH7-A5/GpH7-B3/GpL16-k0 = 100).

A further experiment deals with T3, FcγRIIIa extracellular domain with …. The experiment is described as above. On the procedure: as §1, §2
Take B1: the He/Con_3a was 78.6 relative binding (GpH7-A5/GpH7-B3/GpL16-k0 = 100).
Turning to B2, the He/Con_3a is 54.3 relative binding (GpH7-A5/GpH7-B3/GpL16-k0 = 100).
On to B3, for which the He/Con_3a was 72.1 relative binding (GpH7-A5/GpH7-B3/GpL16-k0 = 100).
Same read-out and setting: the same measure for B4: 67.5 relative binding (GpH7-A5/GpH7-B3/GpL16-k0 = 100); for B5: 53.4 relative binding (GpH7-A5/GpH7-B3/GpL16-k0 = 100); for B6: 47.8 relative binding (GpH7-A5/GpH7-B3/GpL16-k0 = 100).
B7: the He/Con_3a was 49.7 relative binding (GpH7-A5/GpH7-B3/GpL16-k0 = 100).
For the molecule B8, the He/Con_3a is 84 relative binding (GpH7-A5/GpH7-B3/GpL16-k0 = 100).
For B9, the He/Con_3a is 71.7 relative binding (GpH7-A5/GpH7-B3/GpL16-k0 = 100).
Regarding B10, the He/Con_3a was 81.9 relative binding (GpH7-A5/GpH7-B3/GpL16-k0 = 100).

Another experiment deals with T4, FcγRIa. The experiment is described as follows: SPR (Biacore), antibody captured, FcγR as analyte; binding as % of GpH7-A5/GpH7-B3/GpL16-k0.
In the case of B11, the He/Con_1a is 103 % of control.
Regarding B12, the He/Con_1a was 103 % of control.
Take B13: the He/Con_1a is 101 % of control.
Take B16: the He/Con_1a is 94.5 % of control.
B14: the He/Con_1a is 96.3 % of control.
On to B15, for which the He/Con_1a is 93.4 % of control.

A further experiment has as its target T2, FcγRIIb. Described as above.
Consider B11, for which the He/Con_2b is 172 % of control.
Regarding B12, the He/Con_2b was 140 % of control.
For the molecule B13, the He/Con_2b was 137 % of control.
With B16, the He/Con_2b is 111 % of control.
As to B14, the He/Con_2b is 142 % of control.
Regarding B15, the He/Con_2b is 147 % of control.

Values taken from patent US20180155451A1 (published 2018).
